These results are taken from a protein production outcome set (Wang et al. 2014).
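Note: failed if final PepcDB status was selected cloned or expressed and not failed if soluble or beyond.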

The data set in a line: label from the status in PepcDB records.
With “MTYRAEVDGLRAIAVTLVILFHSGVEQFAGGFIGVDVFFVISGYLITTIVINDLENQKFSLGDFYERRIRRILPLLLVVIAVSYLMSWWLFLPQAHKDVGQLAVSSILSSSNILLYLKGHNYFGLEDQANPLFHTWSLGVEEQYYIVIPLLLMLLARGKNAFYLTFFIAVFALSLMAIVYTSNDPDFAFYMIFSRAWELATGSLLALVMRKAQVQSNDTLATIGIVLILASALLFEKSQDGAGITLLVPVIGSALVILFASKDNVCGKLLSLKWVVFVGLISYSLYLWHIPLFVFYRYMLDATQDVNISLYIAALFVLSYFTWRFVEKPFRSRKAMSMRTVSAVVVLLTLPLLTFGVIGHQNGGFPERSAFFEAMRINNGYGLDCNGNTDVNDVCSSAPQPTIAVLGNSHSMVYVKRLSEVTPTGVVQLTQDSCAVGYVDILEAAGSISCRQFFKQAVDTILRTPSIRRVVISSNFNKELSQADYEASLTGLLNELEGKEVVVFGPTPSAPFAVGECLWKARLFGEQEESVCDFSPKRHHPQNVAKLVNYFDRFEHVEFVDLTDAICRNGVCRMKVGANNAMYTDDSHLSYKGAELVLGHYHNSTNETQQFTYDRQ”, the protein production result is on record as “failed”.

For “MTYRDFIGRLKENGKLVEIQQPVSPIFEASRIAKKTKGPVLFHNVSGSKVIMNLLGSRDELSSMLGVPKEEIIKKLSEVSPEGEVRLVPGSPTLEVIESEVDLTKLPILTHFEKDGAPYITAGIVVSEYEGVMNASIHRLMLVGKDKLAARLVPPRHTYLLHKKAAEKGETLPVAIVLGCDPTIIYATSTRVPAGKEFEYAAALRGTPVEVFECSNGIKVPHSEIILEGYIDTKERVDEGPFVDITGTYDMVRKEPVIHITRIIHRKDPIYHGILPAGPEHLLMMGVPYEPRIYRAVGEVTTVKNVVLTEGGCCYLHAVVQIEKQTEGDAKNAIMAAFAAHTSLKHVVVVDEDINIFDPNDVEFAIATRVKGDMDILTITNVRGSSLDPRGASDGTTTKVGIDATKVLIEKENFERAIIPEELEHHHHHH”, the protein production entry was “failed”.

For “MVAARPAERSGDPAAVRVPVPSAWWVLIGGVIGLFASMTLTVEKVRILLDPIYVPSCNVNPIVSCGSVMTTPQASLLGFPNPLLGIAGFTVVVVTGVLAVAKVPLPRWYWIGLAVGILVGVAFVHWLIFQSLYRIGALCPYCMVVWAVIATLLVVVASIVFGPMRENRGSQERVGARLLYQWRWSLATLWFTTVFLLIMVRFWDYWSTLI”, the protein production result is listed as “failed”.

For the sequence “MVAGFTVHSGPHHVPHRDMTHHSRPPGHAPRVTILMPVYNGEKYLAAAMESILDQTFRDFILLIIDDGSSDSSLAIARSFGDPRVQVERNPKNLGLVKTLNRGLDLVQTEFVARMDCDDIALPDRLEKQIAFLDENPDIGMCGTAYELFHESLRQTIRPPCRHEEIVYGLLDDNVFLHSSVIVRMEVLNRHGLRYREDYRLAEDYELWARLARYTHIGNLPQVLVRYRSHPENVSNTNKGEQIATRDRVRLEHLESFGLAPAADQKTLHIDLFSLAFQGSPDQLADARRWLEALARAVSTRCGLPLGRLHRDFALLWYSACGRSAHHGLTVLFSYLKSAMAWKGPKSYILKLLFRCLMRDPIPAVTKLEHHHHHH”, the protein production entry is on record as “not failed”.

As to “MVAVWSAVAALLGVLINNSLSLVIKDYTVQEWRLGIAGYNGAIVGMYWGDSIFSIMGLCLFLVTLLICLLIEFRLRALLIPKQLPILSLPAMVSILVMVFTISLFSFDTNHLLFTGAAEPVLQTYSREVAIILVVSAMAYQYPLATLQTLGISLTGGLVAQWLTGLNLYALVDLWAINLVLAYFSIKTLFLKHARLASLAATFNALLAWIIWYFWFITGLEQLSAPLLIPFIMSSLITLSLYRQYINHNLLQSELWRTFKLMLINRLRAKQCVAITGSGIRKGTLPDYPSGQWLDPKVPITSYTLAEFKASKRCRYLYWKASYDYYQQALTINKNNIDEQLDYLLNHYLSGLFTETVDSLFNTEQHPVYECYGSIKRLYCLDCAKQQAWPPIPLWSQRDLHCQHCSGLLKPQILAADENIDSECYQALQKNMMECGCLLVIGVPTITPVVSMIIENANANKIPIIFIGTIPFGYFVEEKDVQLTGDIAHWLAEINGFINLLHPLKWGCKWKK”, the protein production entry is listed as “failed”.

As to “MVDADGIYYLGPEGSFTHEAASLFKGKDLKAESTISLVFKRVYERESSIGIVPIENSLEGPVNETLDNLYNYDNIYVIGEIEKKIELVLAARSDNLSQIKRIYSHPHAFNEAREKLKELGFNEYIPVESTSKAAKIVSQDSEAAAICSNFAAKLYNLKVLITISSHNNYTRFIVLSKEMNSNGNKSMILFTVPHKPGALYKVLQVFYEYNINISMIYSRPLKSIPWQYYFYLEYEGGISNREFIEKLVKSTSVLKIKGSFSKLNNDPGF”, the protein production entry is reported as “failed”.

Turning to “MVDDIFERGSKGSSDFFTGNVWVKMLVTDENGVFNTQVYDVVFEPGARTHWHSHPGGQILIVTRGKGFYQERGKPARILKKGDVVEIPPNVVHWHGAAPDEELVHIGISTQVHLGPAEWLGSVTEEEYRKATEGK”, the protein production entry is listed as “not failed”.

On to “MVDINRRGALGSLLAGAGLAALPASAEAAQMGLLPAKPTSGPTWTTGIEGQRKADLGDGTFLNPILTGDRPDPSILKDGADYYMTHSSFDAYPGLLIWHSRDLVNWTPVTTTLKTNVGSIWAPELCKHKGRYYIYLPAKFPGNNTSYVIWADKIEGPWSEPIDLKLPRYIDPGHIVDEAGERWLFLSGGDRIKLAPDGLSTVGKPEHVYDPWRYPDDWDVEGFSPEGPKLMRRGEYFYMITAVGGTAGPPTGHMVIAARAKSLAGPWENHPRNPLVRTTDNAEKWWSRGHATLVEGPTPGDWWTVYHGYENGYYTLGRQTLLAPVTWTADGWFDIGGGDLSQPIKKPKGGKPGPHGMALSDDFSTDKYGVQWNFFDPKPGEQDRIKREGGVLTLKGAGEAPSTGSPLIFVNGDQAYEIECEIEIEPETRAGLILFYDRQLYCGLGFDAKNFVTHQYGIERGRPANPHGAKMLMRLRNNRHIVSFHTSGDGGKTWKRFDRGMEVSGYHHNVRGGFLMLKPGIYAAGKGSARFRGFKYRALP”, for which the protein production entry is on record as “failed”.

For “MVDIVCWAVKNGSAGRNLLLIANASSEDDQFWPFLQGLRYRGFKLFATIPDRTLPDDECLTAGIEDTGSDD”, the protein production result is listed as “failed”.

Consider “MVDNYEYQVGASLPPDAPSYVVRKADSDFYQALKAGKYCYVFNSRQMGKSSLKVRVMQRLVNEGVACSSIDVSGQGSKDNVTQEQWYTGIVSKIVKDLQIAKPIEFRRTWWRDRHDISPVQRFDEFIEDVLLSSIQRHIIIFVDEIDSTLSLGFASEDFFALIRSCYNKRAENPAYKRLTFALLGVATPGDLIQDKTRTPFNIGEAIELDGFKIHDIEPLAKGLAGKVENPQAVMQEVLAWTGGQPFLTQRVCELLGKALSIEKRDFRSVDENQIIELVKEIIHNQIIDNWEANDKQEHLKTIRDRLLISEEISVALLGLYQQILQQVEMTADSSFEQMRLRLTGLVVQQQGKLRVYNQIYRNVFDLSWVENELGKLRFYADKLRAWVESNYQDNTCLLWGEDLEKARVWADGRKLSDVDYRFLSASVEAELNQKVVKAETRQNQALQEEEKAKQRLTEVERKINIGGGILALFVVGAIVAAIGAISANIERQQAQVVTDLERSSADLLRLRGNVGLDNLVEAMRSVKQLKQLVKNGNQLKDYPTVSPILALHNTLEYNREINQLKDDRRVQKQVFSPDTKIVANISDDGTTKLLNLQTGTITTLKHDKKVNNVAFSPNGQIVATASDDGTAKLWNLQGGKIATFKHNKEVNDVAFSPDGKTVGTASWDTAKLWNLQGGEIATLQYDSLVQNIVFSPDGKNVAIASYDSDVKLWNLQGKEIATIIHNKMTKYLSVVNNLFFSPDGKVVATTSRRDATTKLWNLQGKEIATFKYYPDIGIKNSVFSPNGKVVAIYSDDKTVNLYNLQGNTIATLKHNDKVEDIVFSPDGNTVATVSSYVHDGTVNLWNLKGNIIGTFKHQGLFQDISRLEFSPDGQTIATALLDNTAHLWNLQGKKIAIFTHYSQVLNLAFSPDGRTITTASSDGTAKLWNLQGGNIRILKHNDQINNIVFSPDGKTVATTSYDGTAKLWNLQKGEIVTLKHDGVVNDAVFSPDGKTIATTTSSDKTVKLWNLQGQLIATLKHKYEPDKEVVFSPDSNIIATSDDTAKLWNLQGQLIATLTNEGGVREVIFNPDGKSVLTTSYENAKLWNLEGQEIATFKHKHLGEVVFSPDGHTVATASVYRDSDISGSVKLWNLKGEEIITLQHGSFSDVLFSPDGKTIATVSTLSNTAKLWNLQGREIATLTHDGWINHISFSPDGKTIGIRSGDKTVKLWNLRGQEIATLKHNSSTIVSDPIFSPDGKTIATVSLDRTVRLWTEVRDGSWQQFAEYQSRRVVFSPDNKLIAIEGNYFVQLRRVQSLDSLLARGCNDLKEYLASRPDLRKEICPDNK”, for which the protein production result is “failed”.

Turning to “MVEEVQKHSVHTLVFRSLKRTHDMFVADNGKPVPLDEESHKRKMAIKLRNEYGPVLHMPTSKENLKEKGPQNAPDSYPHKQYPANQGQDVEYLVTGTHPYPPGPGVALTADTKIQRMPSESAAQSLAVALPSQTRVDANRTAPAGSEYRHPGASDRSQPTAMNSMIMETSNTKNSALMAKKAPTMPKPQWHPPWKLYRVISGHLGWVRCIAVEPGNQWFVTGSADRTIKIWDLASGKLKLSLTGHISTVRGVIVSTRSPYLFSCGEDKQVKCWDLEYNKVIRHYHGHLSAVYGLDLHPTIDVLVTCSRDSTARIWDVRTKASVHTLSGHTNAVATVRCQAAEPQIITGSHDTTIRLWDLVAGKTRVTLTNHKKSVRAVVLHPLHYTFASGSPDNIKQWKFPDGGFIQNLSGHNAIINTLAVNTDGVLVSGADNGTMHLWDWRTGYNFQRVHAAVQPGSLDSESGIFACAFDRSESRLLTAEADKTIKVYREDETATEETHPVSWKPEIIKRKRF”, the protein production result is listed as “failed”.

Turning to “MVEGTESATGAASAGDLVEGRHAAPKARAGKGGLARSSLLMALGTVVSRATGLIRQVLQAAALGTGLLASTYNTANTVPTSLYTLLIGGALNAVLVPQLVRARATQPDGGRAYEQRLVTLVLCVLGVGTALAVWAAPGIVALYMRDTPDSHEAFELTVVFARFLLPQIFFYGVFSILGQVLNAREKFGAMMWTPVLNNVVLIGMFGAYLSLMTVPDRVEDITGQQVRFLGVCTTAGIALQALALIPFVRAAGFRFRPRFDWRGTGLGKSVHAAKWTLLLVLANQVALTVVTNYANAVDQELPKAGAGYTAYTYAQTIWMLPQSIVTVSLVTALLPRMSRAVAEDRLPDLRADLSRVLRISGVVIVPAGFLFLALGPGIATLLFAHGAADAASAQPLGHMLQAFGLGLIPFSAQYLLLRGFYAFEDTRTPFFMAVWIAVVNIALATACHLLLPARWAVTGMAAGYTLSYLAGLLLTARLLRKRLGGRRLDDGELRRTYGKLLCASAVAAGAGWAAARATATTTPTALALAAGAVTMALVYVALARLLKVSELRLPGRG”, the protein production result was “failed”.

For the sequence “MVEHATSETDLDRIVRMFDGANLIVHGFDGVIQRWTSGCEQLYGWSASEAVGNVVHDLLDTQFPAGVEELRTEVRDKGFWTGQVGHRRKDGVRLAIVTRWTVLELGDPDTLIIQSNNDVTLMQQVGDELRERQAHLQSILATVPDAMIVIDDKGCIASFSTAAEKLFGYSADEAIGQNVSMLMPSPDREAHDGYLDSYIRTGRRRIIGYGRVVVGLRKHGTTFPMELSVGEAVAGGKRTFTGFVRDLTSRHRIEAELRQSQKMEAVGQLTGGLAHDFNNLLAVIIGNLEMLEARLAEPGQLSLLREAQSAADDGARLTSQLLAFGRRQALAPTVLDVGALLGEFSDLVQRTLGDSVELRTIIPGRRLSAMADKAQLQSALLNLSINARDAMPAGGRLTIEISGVEIDADYVGMYPAIRPGRYVLISVTDTGTGMTSEVMERAFEPFFTTKPTGSGTGLGLSMVYGFAKQSAGHLQLYSEPGEGTTVRLFLPRADGGRDSHPDEQQVKDAPSPGTETILVVEDDARVRRVTISRLQTLGYSVIEATNGIDALKELEAGHDVALLFSDVAMPGMNGDELARKVRERWPRVKILLTSGFSEPHAAEKEIEAGAGWLKKPYTASEMSTRLRLLLDARHGSDSA”, the protein production result is on record as “failed”.
